According to patent US20110171229A1:
One block for each substance: values may come before it.

What was measured:
[1] = biological target: chondroitin sulfate proteoglycan 4 (CSPG4) (human) (UniProt Q6UVK1); assay: cell-based or functional assay
[2] = biological target: chondroitin sulfate proteoglycan 4 (CSPG4) (human) (UniProt Q6UVK1); assay: flow cytometry (FACS), whole cell population of MCF-7 cells
[3] = biological target: chondroitin sulfate proteoglycan 4 (CSPG4) (human) (UniProt Q6UVK1); assay: flow cytometry (FACS), whole cell population of T-47D cells
[4] = biological target: chondroitin sulfate proteoglycan 4 (CSPG4) (human) (UniProt Q6UVK1); assay: flow cytometry (FACS), whole cell population of HS578T cells
[5] = biological target: chondroitin sulfate proteoglycan 4 (CSPG4) (human) (UniProt Q6UVK1); assay: flow cytometry (FACS), whole cell population of SK-BR-3 cells
[6] = biological target: chondroitin sulfate proteoglycan 4 (CSPG4) (human) (UniProt Q6UVK1); assay: flow cytometry (FACS), whole cell population of SUM-149 cells
[7] = biological target: chondroitin sulfate proteoglycan 4 (CSPG4) (human) (UniProt Q6UVK1); assay: flow cytometry (FACS), whole cell population of MDA-MB-231 cells
[8] = biological target: chondroitin sulfate proteoglycan 4 (CSPG4) (human) (UniProt Q6UVK1); assay: flow cytometry (FACS), whole cell population of MDA-MB-435 cells
[9] = biological target: chondroitin sulfate proteoglycan 4 (CSPG4) (human) (UniProt Q6UVK1); assay: flow cytometry (FACS), CD44+/CD24-/lo putative CSC subpopulation of MCF-7 cells
[10] = biological target: chondroitin sulfate proteoglycan 4 (CSPG4) (human) (UniProt Q6UVK1); assay: flow cytometry (FACS), CD44+/CD24-/lo putative CSC subpopulation of HS578T cells
[11] = biological target: chondroitin sulfate proteoglycan 4 (CSPG4) (human) (UniProt Q6UVK1); assay: flow cytometry (FACS), CD44+/CD24-/lo putative CSC subpopulation of SUM-149 cells
[12] = biological target: chondroitin sulfate proteoglycan 4 (CSPG4) (human) (UniProt Q6UVK1); assay: flow cytometry (FACS), CD44+/CD24-/lo putative CSC subpopulation of MDA-MB-231 cells
[13] = biological target: chondroitin sulfate proteoglycan 4 (CSPG4) (human) (UniProt Q6UVK1); assay: flow cytometry (FACS), CD44+/CD24-/lo putative CSC subpopulation of MDA-MB-435 cells
[14] = biological target: chondroitin sulfate proteoglycan 4 (CSPG4) (human) (UniProt Q6UVK1); assay: flow cytometry (FACS), whole cell population of MCF-7 cells; control antibody
[15] = biological target: chondroitin sulfate proteoglycan 4 (CSPG4) (human) (UniProt Q6UVK1); assay: flow cytometry (FACS), whole cell population of T-47D cells; control antibody
[16] = biological target: chondroitin sulfate proteoglycan 4 (CSPG4) (human) (UniProt Q6UVK1); assay: flow cytometry (FACS), whole cell population of HS578T cells; control antibody
[17] = biological target: chondroitin sulfate proteoglycan 4 (CSPG4) (human) (UniProt Q6UVK1); assay: flow cytometry (FACS), whole cell population of SK-BR-3 cells; control antibody
[18] = biological target: chondroitin sulfate proteoglycan 4 (CSPG4) (human) (UniProt Q6UVK1); assay: flow cytometry (FACS), whole cell population of SUM-149 cells; control antibody
[19] = biological target: chondroitin sulfate proteoglycan 4 (CSPG4) (human) (UniProt Q6UVK1); assay: flow cytometry (FACS), whole cell population of MDA-MB-231 cells; control antibody
[20] = biological target: chondroitin sulfate proteoglycan 4 (CSPG4) (human) (UniProt Q6UVK1); assay: flow cytometry (FACS), whole cell population of MDA-MB-435 cells; control antibody
[21] = biological target: chondroitin sulfate proteoglycan 4 (CSPG4) (human) (UniProt Q6UVK1); assay: flow cytometry (FACS), CD44+/CD24-/lo putative CSC subpopulation of MCF-7 cells; control antibody
[22] = biological target: chondroitin sulfate proteoglycan 4 (CSPG4) (human) (UniProt Q6UVK1); assay: flow cytometry (FACS), CD44+/CD24-/lo putative CSC subpopulation of HS578T cells; control antibody
[23] = biological target: chondroitin sulfate proteoglycan 4 (CSPG4) (human) (UniProt Q6UVK1); assay: flow cytometry (FACS), CD44+/CD24-/lo putative CSC subpopulation of SUM-149 cells; control antibody
[24] = biological target: chondroitin sulfate proteoglycan 4 (CSPG4) (human) (UniProt Q6UVK1); assay: flow cytometry (FACS), CD44+/CD24-/lo putative CSC subpopulation of MDA-MB-231 cells; control antibody
[25] = biological target: chondroitin sulfate proteoglycan 4 (CSPG4) (human) (UniProt Q6UVK1); assay: flow cytometry (FACS), CD44+/CD24-/lo putative CSC subpopulation of MDA-MB-435 cells; control antibody

Chain of UniProt Q6UVK1 (Q6UVK1 30-2322): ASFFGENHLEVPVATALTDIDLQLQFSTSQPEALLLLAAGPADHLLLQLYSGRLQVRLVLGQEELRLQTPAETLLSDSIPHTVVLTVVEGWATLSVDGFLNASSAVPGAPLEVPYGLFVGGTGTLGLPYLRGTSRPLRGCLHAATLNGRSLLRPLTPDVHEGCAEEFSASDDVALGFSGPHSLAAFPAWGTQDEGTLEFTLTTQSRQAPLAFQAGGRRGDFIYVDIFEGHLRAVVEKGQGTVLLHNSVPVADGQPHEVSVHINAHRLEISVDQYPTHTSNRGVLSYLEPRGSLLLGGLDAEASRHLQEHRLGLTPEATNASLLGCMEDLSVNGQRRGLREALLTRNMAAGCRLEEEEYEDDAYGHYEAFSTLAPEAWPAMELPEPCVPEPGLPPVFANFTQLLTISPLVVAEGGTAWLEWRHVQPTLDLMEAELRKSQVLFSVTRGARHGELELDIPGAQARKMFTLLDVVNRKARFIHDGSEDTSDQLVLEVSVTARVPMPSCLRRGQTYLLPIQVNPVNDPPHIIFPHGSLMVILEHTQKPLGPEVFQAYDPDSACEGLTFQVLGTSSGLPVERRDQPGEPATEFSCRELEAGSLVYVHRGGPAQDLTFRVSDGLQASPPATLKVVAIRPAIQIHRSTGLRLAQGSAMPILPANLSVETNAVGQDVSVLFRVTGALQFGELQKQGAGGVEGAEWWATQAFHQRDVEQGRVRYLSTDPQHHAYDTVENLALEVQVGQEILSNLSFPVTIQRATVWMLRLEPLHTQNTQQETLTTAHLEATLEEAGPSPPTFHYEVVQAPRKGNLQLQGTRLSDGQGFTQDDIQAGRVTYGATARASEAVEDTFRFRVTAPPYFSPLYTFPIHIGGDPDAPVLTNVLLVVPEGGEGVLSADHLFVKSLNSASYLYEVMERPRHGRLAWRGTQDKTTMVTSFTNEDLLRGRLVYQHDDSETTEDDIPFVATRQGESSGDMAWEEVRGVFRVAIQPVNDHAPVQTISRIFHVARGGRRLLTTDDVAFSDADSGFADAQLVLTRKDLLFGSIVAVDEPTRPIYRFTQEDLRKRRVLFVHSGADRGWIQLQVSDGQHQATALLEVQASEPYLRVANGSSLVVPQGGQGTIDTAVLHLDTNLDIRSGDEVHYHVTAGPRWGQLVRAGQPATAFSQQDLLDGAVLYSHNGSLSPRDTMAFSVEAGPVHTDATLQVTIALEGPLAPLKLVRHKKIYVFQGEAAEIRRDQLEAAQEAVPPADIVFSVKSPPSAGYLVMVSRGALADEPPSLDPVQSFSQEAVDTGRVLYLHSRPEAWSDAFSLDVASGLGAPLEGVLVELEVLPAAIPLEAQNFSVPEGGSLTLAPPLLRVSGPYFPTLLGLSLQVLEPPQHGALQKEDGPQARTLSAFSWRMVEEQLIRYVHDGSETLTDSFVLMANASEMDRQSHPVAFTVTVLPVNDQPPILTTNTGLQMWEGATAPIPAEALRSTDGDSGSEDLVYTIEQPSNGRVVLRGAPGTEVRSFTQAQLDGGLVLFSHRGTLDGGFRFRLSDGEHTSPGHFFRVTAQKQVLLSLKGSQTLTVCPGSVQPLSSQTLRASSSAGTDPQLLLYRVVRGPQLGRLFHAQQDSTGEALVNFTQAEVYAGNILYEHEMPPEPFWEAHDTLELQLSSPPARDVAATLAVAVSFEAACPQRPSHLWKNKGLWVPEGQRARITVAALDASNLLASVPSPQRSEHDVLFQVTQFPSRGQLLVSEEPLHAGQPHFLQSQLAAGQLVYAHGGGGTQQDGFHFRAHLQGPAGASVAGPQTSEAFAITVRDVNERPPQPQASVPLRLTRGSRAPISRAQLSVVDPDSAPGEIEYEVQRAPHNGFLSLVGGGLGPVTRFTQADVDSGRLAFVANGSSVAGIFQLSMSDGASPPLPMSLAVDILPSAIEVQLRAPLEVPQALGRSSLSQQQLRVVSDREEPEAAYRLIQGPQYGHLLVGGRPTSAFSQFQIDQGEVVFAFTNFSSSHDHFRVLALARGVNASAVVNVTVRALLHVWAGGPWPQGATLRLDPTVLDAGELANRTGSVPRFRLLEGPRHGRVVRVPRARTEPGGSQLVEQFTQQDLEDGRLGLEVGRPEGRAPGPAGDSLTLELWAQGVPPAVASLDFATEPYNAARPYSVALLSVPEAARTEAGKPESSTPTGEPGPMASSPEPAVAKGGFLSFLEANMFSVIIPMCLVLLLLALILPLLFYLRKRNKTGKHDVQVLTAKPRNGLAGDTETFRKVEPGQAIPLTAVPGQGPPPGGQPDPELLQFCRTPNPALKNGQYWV

inhibition of adhesion of cells to fibronectin [1]: 45%
inhibition of cell growth in a 3D matrix setting (TNBC cells) [1]: 70%
inhibition of motility towards fibronectin in a Boyden chamber assay [1]: 56%
% of stained cells [2]: 8.5%
MFI [2]: 12
% of stained cells [3]: 13%
MFI [3]: 3.8
% of stained cells [4]: 66.7%
MFI [4]: 379
% of stained cells [5]: 1.5%
MFI [5]: 4.6
% of stained cells [6]: 93.4%
MFI [6]: 193
% of stained cells [7]: 83.8%
MFI [7]: 53.8
% of stained cells [8]: 96.1%
MFI [8]: 714
% of stained cells [9]: 11.4%
MFI [9]: 9.8
% of stained cells [10]: 71.7%
MFI [10]: 196
% of stained cells [11]: 95.7%
MFI [11]: 179
% of stained cells [12]: 85.7%
MFI [12]: 53.8
% of stained cells [13]: 99.7%
MFI [13]: 694
Substance: CSPG4-specific mAb 225.28 (antibody)

% of stained cells [2]: 17.4%
MFI [2]: 13.8
% of stained cells [3]: 0.5%
MFI [3]: 3.4
% of stained cells [4]: 61.4%
MFI [4]: 39.2
% of stained cells [5]: 0%
MFI [5]: 2
% of stained cells [6]: 1.3%
MFI [6]: 2.8
% of stained cells [7]: 91.2%
MFI [7]: 154
% of stained cells [8]: 93.5%
MFI [8]: 79.2
% of stained cells [9]: 2.6%
MFI [9]: 2.4
% of stained cells [10]: 33.9%
MFI [10]: 17.6
% of stained cells [11]: 3%
MFI [11]: 3.1
% of stained cells [12]: 16.6%
MFI [12]: 6.9
% of stained cells [13]: 96.4%
MFI [13]: 50.5
Substance: CSPG4-specific mAb 763.74 (antibody)

% of stained cells [2]: 13.8%
MFI [2]: 11.9
% of stained cells [3]: 0.3%
MFI [3]: 2.7
% of stained cells [4]: 52.6%
MFI [4]: 34.2
% of stained cells [5]: 0.1%
MFI [5]: 2.1
% of stained cells [6]: 0.9%
MFI [6]: 2.8
% of stained cells [7]: 88.4%
MFI [7]: 142
% of stained cells [8]: 86.8%
MFI [8]: 63.3
% of stained cells [9]: 2.5%
MFI [9]: 2.5
% of stained cells [10]: 17.6%
MFI [10]: 14.5
% of stained cells [11]: 1.4%
MFI [11]: 2.7
% of stained cells [12]: 12%
MFI [12]: 6.1
% of stained cells [13]: 91.9%
MFI [13]: 40.4
Substance: CSPG4-specific mAb TP41.2 (antibody)

% of stained cells [2]: 3.5%
MFI [2]: 7.8
% of stained cells [3]: 0%
MFI [3]: 2.3
% of stained cells [4]: 92.3%
MFI [4]: 109
% of stained cells [5]: 0.1%
MFI [5]: 2.4
% of stained cells [6]: 51.1%
MFI [6]: 19.6
% of stained cells [7]: 68.3%
MFI [7]: 86.3
% of stained cells [8]: 82.4%
MFI [8]: 61.1
% of stained cells [9]: 9.9%
MFI [9]: 3.2
% of stained cells [10]: 72.4%
MFI [10]: 34.4
% of stained cells [11]: 51.2%
MFI [11]: 10.5
% of stained cells [12]: 75.6%
MFI [12]: 33.6
% of stained cells [13]: 98%
MFI [13]: 93
Substance: CSPG4-specific mAb TP61.5 (antibody)

% of stained cells [14]: 0.7%
MFI [14]: 6.2
% of stained cells [15]: 6.2%
MFI [15]: 10.4
% of stained cells [16]: 0.4%
MFI [16]: 13
MFI [17]: 4.3
% of stained cells [18]: 2%
MFI [18]: 2.7
% of stained cells [19]: 0.3%
MFI [19]: 9.8
% of stained cells [20]: 0.7%
MFI [20]: 9.1
% of stained cells [21]: 0.6%
MFI [21]: 1.8
% of stained cells [22]: 0.5%
MFI [22]: 10
% of stained cells [23]: 0.5%
% of stained cells [24]: 0.4%
MFI [24]: 3.7
% of stained cells [25]: 0.5%
MFI [25]: 3
Substance: Isotype control (antibody)
